Consider one variant from publication PMC7195491.

B1: Dpr10 (Defective proboscis extension response 10), extracellular region [Drosophila melanogaster] / DIP-α (Dpr Interacting Protein alpha), extracellular region [Drosophila melanogaster] (parent)
chain 1: MLTLWTALFCCLTGLAVCYQRQSVSNNNHNNAEAKPTHAPPSHYPHGHKWNEPYFDLTMPRNITSLVGKSAYLGCRVKHLGNKTVAWIRHRDLHILTVGTYTYTTDQRFQTSYHRDIDEWTLQIKWAQQRDAGVYECQISTQPVRSYSVNLNIVVPTATILGGPDLYVDKGSTINLTCIIKFSPEPPTHIFWYHQDKVLSEETSGGRLKFKTIKSEETKSILLIYDADLLHSGKYSCYPSNTEIASIRVHVLQGERPEAMQTNAAPAAVALACWSCHFGQATQAVRVISTMVAALVLLEACSSLLLQSGGGGGCPGGGSPAGGMPTRVREIREKPLTNSLLDPKIPSTTSAERVNNGSRNAR
chain 2: MPVSAKRLLRNFQFTSCDRNGKMLIHLLLIVSLLEAIGAFQPEFVESISNVSVAVGRDATFTCHVRHLGGYRVGWLKADTKAIQAIHENVITHNPRVTVSHLDQNTWNLHIKAVSEEDRGGYMCQLNTDPMKSQIGFLDVVIPPDFISEDTSSDVIVPEGSSVRLTCRARGYPEPIVTWRREDGNEIVLKDNVGTKTLAPSFRGEVLKLSKISRNEMGSYLCIASNGVPPSVSKRISLSIHFHPVIQVPNQLVGAPLGTDVQIECHVEASPKSINYWIKDTGEMIVTSGKYHVQESSQSMYETKMSMIVRKFQKDDVGSYRCIAKNSLGEVDSSIRLYEIPGPNRNKNPLNGGGKGGGAGGSLDADANDILKQKQQVKVTYQPEDEELQYGSVEDFEAEGGEGGGLTPLSPHVYYTSGNKPATHKPGNSGGNQHLHQQHHHHHHHNNNNNNQQHSGGPGGGPTGGDAGSLGGEMGGITRKPPPYYGGNTEVRGPIDNNEMSSGSGDSRLCRGHHLPILLLPFARLILVRSWHCRHTFLMGLSQACLPGLLLSLL

Variants of B1 are the subject of this assay. Nature of the assay: SPR. To be noted: with DIP-α (Dpr Interacting Protein alpha), 25 °C, 10 mM Tris-HCl, pH 7.2, 150 mM NaCl, 1 mM EDTA, 1 mg mL−1 BSA, 0.01% (v/v) Tween-20, analyte 81 to 0.012 μM, three-fold dilution series, parent: 0.
On to chain 1 L93G Q142E V144K, for which the ddG was > 3.5 kcal/mol.
